Laboratory results reported in US12371675B2, “Process and microorganism for synthesis of adipic acid from carboxylic acids” (THE GOVERNING COUNCIL OF THE UNIVERSITY OF TORONTO, priority 2015, dated 2025).

Legend:
[1] = substrate: CCCC=O; assay: AR kinetics, aldehyde reduction followed by NAD(P)H oxidation; assay type: biochemical, Thermotoga maritima; settings: other: butyraldehyde, pH 7.5
Excerpt: (§1) 28 aldehyde reductases from different bacteria were cloned and overexpressed in E. coli. Enzymes purified using affinity chromatography on Ni-NTA resin were screened for reductase activity with adipaldehyde and butyraldehyde in presence of both NADPH and NADH (Table 5). Butyraldehyde was used as a substrate substitute for 4-oxo-butanal, which is not commercially available. Reactions were followed spectrophotometrically, by cofactor oxidation at 340 nm.
(§2) Enzyme activity of purified ARs was measured spectrophotometrically in 96-well plates Reaction mixtures contained 100 mM HEPES buffer (pH 7.5), 0.4 mM NADH/NADPH, 10 mM adipaldehyde or butylaldehyde, and proteins (10 μg for adipaldehyde screen, 2 μg for butyraldehyde screen) in a final volume of 200 μL Reaction mixture for adipaldehyde screening contained 1.8% DMSO. Enzyme reactions were monitored by following the decrease in absorbance at 340 nm (ε340 nm=6,220/M·cm) due to oxidation of NAD(P)H to NAD(P)+.
(§3) ARs RHA1_ro05279, PA1146, SC00229, PP_3370 were characterised for saturation with adipaldehyde, PP_3370, PSPTO_2097, RHA1_ro05279, SC00229, TM_0111, PA1146 were characterised for butyraldehyde saturation (Table 10). […] For both substrates maximal kcat/Km with minimal Km values was shown by AR PP 3370 from Pseudomonas putida.

[2] = substrate: O=CCCCCC=O; assay: AT kinetics, coupled with alanine and glutamate dehydrogenases; assay type: biochemical, Escherichia coli; settings: other: amino-donor Ala/Glu; pH 7.5
Procedure: (§4) 28 PLP-dependent aminotransferases (from the classes I, II and III) were cloned and overexpressed in E. coli (Table 6). Enzymes were purified using affinity chromatography on a Ni-NTA resin and were screened for […] activity towards adipaldehyde using alanine and glutamate as amino-donors. Enzyme activity was measured spectrophotometrically using a coupled reaction with the NADPH/NADH-dependent alanine and glutamate dehydrogenases in the presence of excess of ammonium chloride.
(§5) Reaction was monitored by following the decrease in absorbance of NAD(P)H to NAD(P)+ at 340 nm (ε340 nm=6,220/M·cm). Coupled enzymes can aminate pyruvate/ketoglutarate produced by ATs in excess of NH4Cl.

[3] = substrate: O=CCCCCC=O; assay: AR kinetics, aldehyde reduction followed by NAD(P)H oxidation; assay type: biochemical, Pseudomonas putida; settings: other: adipaldehyde, 1,8% DMSO, pH 7.5
Excerpt: as §1, §2, §3

[4] = substrate: CCCC=O; assay: as above; assay type: biochemical, Pseudomonas putida; settings: other: butyraldehyde, pH 7.5
Excerpt: as §1, §2, §3

[5] = substrate: O=CCCCCC=O; assay: as above; assay type: biochemical, Streptomyces coelicolor; settings: other: adipaldehyde; cofactor NADPH; 1,8% DMSO; pH 7.5
Excerpt: as §1, §2, §3

[6] = substrate: CCCC=O; assay: as above; assay type: biochemical, Streptomyces coelicolor; settings: other: butyraldehyde, pH 7.5
Excerpt: as §1, §2, §3

[7] = substrate: O=C(O)C=CCCC(=O)O; assay: Kinetics of purified EREDBC, NADH oxidation at 340 nm, anaerobic; assay type: biochemical, Bacillus coagulans 36D1; settings: other: 2-hexenedioic acid in 0.25 mM isopropanol, 2.5 to 35 mM, sigmoidal kinetics, pH 7.0, 30.0 °C
Procedure: (§6) The C═C reducing activity of EREDs was examined. Enzyme activity of purified EREDs was measured spectrophotometrically in 96-well plates by following incubation for 3-5 min at 30° C. in the anaerobic chamber as described in M. Buhler, H. Simon, Hoppe-Seyler's Zeitschrift fur Physiologische Chemie 1982, 363, 609-625. Buffers and reagents were degassed and sparged with Ar. Reaction mixture contained potassium phosphate (100 mM and pH 7.0), NADH (0.5 mM), indicated substrates, and proteins (0.1-50 μg) in a final volume of 200 μL. Enzyme reactions were monitored by following the decrease in absorbance at 340 nm (ε340 nm=6,220/M·cm) due to oxidation of NADH to NAD+.
(§7) For in vitro biochemical characterization, enzyme activities of purified EREDs were measured with 2-hexenedioic acid, cis-cis-muconic acid, trans-trans muconic acid, trans-cinnamic acid, trans-2-methyl-2-butenoic acid, trans-2-butenoic acid, acrolein, 2-cyclohexen-1-one, and 3-methyl-2-cyclohexenone. […] [Feng, J. et al. Discovery and Characterization of BlsE, a Radical S-Adenosyl-L-methionine Decarboxylase Involved in the Blasticidin S Biosynthetic Pathway. PLoS ONE 8 (2013)].
(§8) Kinetic studies of purified EREDBC were performed using 2-hexenedioic acid, 2-cyclohexen-1-one, 3-methyl-2-cyclohexenone, and trans-cinnamic acid as substrates (FIG. 10).
(§9) To increase the dissolved substrate concentration, 2-hexenedioic acid was dissolved in a reaction mixture containing […] (final concentration) isopropanol, and kinetic constants of EREDBC and EREDCA were determined.

[8] = substrate: O=C(O)/C=C/c1ccccc1; assay: as above; assay type: biochemical, Bacillus coagulans 36D1; settings: other: trans-cinnamic acid, pH 7.0, 30° C., anaerobic
Procedure: as §6, §7, §8, §9

[9] = substrate: O=CCCCCC=O; assay: AT kinetics, coupled with alanine and glutamate dehydrogenases; assay type: biochemical, Streptomyces avermitilis; settings: other: amino-donor Ala/Glu; pH 7.5
Procedure: as §4, §5

B1: Thermotoga maritima aldehyde reductase TM_0111, SEQ ID NO: 52 (Thermotoga maritima MSB8) (protein)
chain: MFKISFYLPTEIIFRVGAVDELEERAKKLGKKALIVTGRSSTKKTGLLQRVVDLLKKAGVESFVFDKIVPNPISDHVDEAAEIVRKEKIDFIIGLGGGSPIDSAKAISITAPNEGKFWDYVPVGGGKIPEKSIPVVAIPTTHGTGTEADPFAVITNPQTKEKVGIGYRNTFPVLSLVDPEVMKTLPKDQTAYTSMDAFYHAIEAFLNVNANPYSDVLALDAMKRIVTYLPVAYENGEDMEARTNLAWASTEAGITETLTGVIANHALEHGLSGFYPEITHGLGLCITGPYLFEYIFDHAYERLAIVGREVFGVYETDDRKAGRLAIKKLRDFQEMFGLNKRLSELGVKKEDIPKMAETGYRILNGVVVVTPGNLTAKDMEEIFNRCY
With B1 the Km ([1]; cofactor NADH) was 1370 ± 310 µM, the kcat ([1]; cofactor NADH) was 0.90 ± 0.05 s⁻¹ and the kcat/Km ([1]; cofactor NADH) was “(6.57 ± 0.36) × ×10^2 M^−1 · s^−1”. For the same protein, the Km ([1]; cofactor NADPH) was 2720 ± 1390 µM, the kcat ([1]; cofactor NADPH) was 0.30 ± 0.06 s⁻¹ and the kcat/Km ([1]; cofactor NADPH) was “(1.10 ± 0.22) × ×10^2 M^−1 · s^−1”.

B2: Escherichia coli aminotransferase gabT, SEQ ID NO: 53 (Escherichia coli K-12) (protein)
chain: MNSNKELMQRRSQAIPRGVGQIHPIFADRAENCRVWDVEGREYLDFAGGIAVLNTGHLHPKVVAAVEAQLKKLSHTCFQVLAYEPYLELCEIMNQKVPGDFAKKTLLVTTGSEAVENAVKIARAATKRSGTIAFSGAYHGRTHYTLALTGKVNPYSAGMGLMPGHVYRALYPCPLHGISEDDAIASIHRIFKNDAAPEDIAAIVIEPVQGEGGFYASSPAFMQRLRALCDEHGIMLIADEVQSGAGRTGTLFAMEQMGVAPDLTTFAKSIAGGFPLAGVTGRAEVMDAVAPGGLGGTYAGNPIACVAALEVLKVFEQENLLQKANDLGQKLKDGLLAIAEKHPEIGDVRGLGAMIAIELFEDGDHNKPDAKLTAEIVARARDKGLILLSCGPYYNVLRILVPLTIEDAQIRQGLEIISQCFDEAKQ
notes: 6His-tag (N); made in house; host or cells: E. coli BL21 (DE3)
For B2, the Km [2] was 670 ± 70 µM, the kcat [2] was 0.61 ± 0.02 s⁻¹ and the kcat/Km [2] was 9.22±0.27 ×10^2 M^−1 · s^−1.

B3: Pseudomonas putida aldehyde reductase PP_3370, SEQ ID NO: 45 (Pseudomonas putida KT2440) (protein)
chain: MQYVKLGSTGLDISRLCLGCMTFGEPDAGTHPWTLGEDASRPIIRHAVEQGINFFDTANSYSAGTSEIILGKLLREFTRREETVIATKVFFPANMWEGASRPNEQGLSRKAIMANIDASLSRLGTDYVDLYQIHRWDYHTPIEETMEALHDVVKAGKARYIGASSMYAWQFAKAQQVAANHGWSRFVSMQNYLNLIYREEEREMIPLCLDQGVGLMPWSPMARGRLTRPHGQQTQRTRTDVSGQSFYEKTEVEDGRVIDVVEQIASERGVPMAQVALAWVLGRAGVSAPIVGASKPAHLDDALGALSLQLSEDEVARLQAPYVPHAVTGFK
With B3 the Km ([3]; cofactor NADH) was 4780 ± 490 µM, the kcat ([3]; cofactor NADH) was 1.74 ± 0.08 s⁻¹ and the kcat/Km ([3]; cofactor NADH) was “(3.64 ± 0.16) × ×10^2 M^−1 · s^−1”. For the same protein, the Km ([3]; cofactor NADPH) was 290 ± 20 µM, the kcat ([3]; cofactor NADPH) was 6.03 ± 0.25 s⁻¹ and the kcat/Km ([3]; cofactor NADPH) was 2.08±0.09 ×10^4 M^−1 · s^−1. For the same protein, the Km ([4]; cofactor NADH) was 16100 ± 1890 µM, the kcat ([4]; cofactor NADH) was 10.7 ± 0.73 s⁻¹ and the kcat/Km ([4]; cofactor NADH) was “(6.64 ± 0.45) × ×10^2 M^−1 · s^−1”. The Km ([4]; cofactor NADPH) was 1530 ± 110 µM, the kcat ([4]; cofactor NADPH) was 8.54 ± 0.22 s⁻¹ and the kcat/Km ([4]; cofactor NADPH) was 5.58±0.14 ×10^3 M^−1 · s^−1.

B4: Streptomyces coelicolor aldehyde reductase SCO0229, SEQ ID NO: 50 (Streptomyces coelicolor A3(2)) (protein)
chain: MQRQNWLITGVSTGLGRAFAQAALSAGHTVVGTVRSENDVRAFEELGPGHAHGRILDVTDGGAVNGVVAEVERSVGPLDVVVANAGYGLEGTFEETPLAEVRRQFDVNVFGAMATLQAALPHMRARRRGHLMAVTSMGGLMAVPGMSAYCGSKFALEGILEALGKEVAQFGIHVTAIEPGSFRTDWAGRSMTRAARTVADYDDLFAPIREARQKASGNQLGNPAKAGEAVVHITSVDQPPAHLVLGSDALRLVTAARTAVDEDIRAWEALSRTTDFPQGAQL
B4 was tested, and the Km [5] was 8480 ± 580 µM, the kcat [5] was 3.79 ± 0.10 s⁻¹ and the kcat/Km [5] was “(4.47 ± 0.12) × ×10^2 M^−1 · s^−1”. For the same protein, the Km ([6]; cofactor NADH) was 6560 ± 2540 µM, the kcat ([6]; cofactor NADH) was 0.90 ± 0.05 s⁻¹ and the kcat/Km ([6]; cofactor NADH) was “(1.07 ± 0.18) × ×10^2 M^−1 · s^−1”. For the same protein, the Km ([6]; cofactor NADPH) was 35700 ± 10500 µM, the kcat ([6]; cofactor NADPH) was 21.9 ± 4.69 s⁻¹ and the kcat/Km ([6]; cofactor NADPH) was “(6.15 ± 1.31) × ×10^2 M^−1 · s^−1”.

B5: Bacillus coagulans 36D1 2-enoate reductase EREDBC, SEQ ID NO: 1 (Heyndrickxia coagulans) (protein)
chain: MKYKKLFETVKIRNVELKNRYAMAPMGPLGLADAEGGFNQRGIEYYTARARGGTALIITGVTFVDNEVEEHGMPNVPCPTHNPVHFVRTSKEMTERIHAYDSKIFLQMSAGFGRVTIPTNLGEYPPVAPSPIPHRWLDKTCRELTVEEIHSIVRKFGDGAFNAKRAGFDGVQIHAVHEGYLLDQFAIAFFNKRTDAYGGPLENRLRFAREIVEEIKQRCGEDFPVTLRFSPKSFIKDWREGALPGEEFEEKGRDLDEGIEAAKLLVSYGYDALDVDVGSYDSWWWSHPPMYQKKGLYIPYARLVKEAVDVPVLCAGRMDNPDLALAALEDGACDIISLGRPLLADPDYVNKLRIGQVADIRPCLSCHEGCMGRIQEYSSLGCAVNPAACREKEAALTPALKKKRVLIAGGGVAGCEAARVLALRGHEPVIFEKSNRLGGNLIPGGAPDFKEDDLALVAWYEHTLERLGVEIHLNTALTKEEILAANVDAVLIATGSNPKILPLDGKNKVFTAEDVLLDKVDAGQHVVIVGGGLVGCELALNLAEKGKDVSLVEMQDKLLAVNGPLCHANSDMLERLVPFKGVQVYTSSKIVDTTEKTAVVDVDGELREIEADSIVLAVGYSAEKSLYEDLKFEVADLHVVGDARKVANIMYAIWDAYEVAANL
B5 gave a Km [7] of 18900 µM, a Km [8] of 510 µM and a kcat [8] of 0.50 s⁻¹.

B6: Streptomyces avermitilis aminotransferase SAV2583, SEQ ID NO: 55 (Streptomyces avermitilis MA-4680 = NBRC 14893) (protein)
chain: MSALPQERRVVTAIPGPKSQELQARRTAVVAAGVGSVLPVFTTRAGGGIIEDVDGNRLIDFGSGIAVTSVGASAEAVVRRASAQLQDFTHTCFMVTPYEGYVAVAEALAELTPGDHAKKSALFNSGAEAVENAVKIARAYTKRQAVVVFDHGYHGRTNLTMALTAKNMPYKNGFGPFAPEVYRVPVAYGYRWLTGPENAGAEASAQAIDMINKQIGADNVAAIIIEPVLGEGGFIEPAKGFLPAISKFAKDNGIVFVADEIQSGFCRTGQWFACEDEGIVPDLITTAKGIAGGLPLAAVTGRAEIMDAAHAGGLGGTYGGNPVACAGALGAIETMKELDLNAKAKNIEAVMKARLGAMAEKFDIIGDVRGRGGMIAIELVKDRDTKEPNPEAAGALAKACHQEGLLVLTCGTYGNVLRFLPPLVIGEDLLNEGLDIIEQAFSRI
With B6 the Km [9] was 1350 ± 190 µM, the kcat [9] was 0.39 ± 0.02 s⁻¹ and the kcat/Km [9] was “(2.90 ± 0.13) × ×10^2 M^−1 · s^−1”.
